Measured values taken from patent US20210140973A1 (NITTO BOSEKI, published 2021).

Assays:
[1] = target: Myeloma human IgA1 (Abcam) (human, UniProt P01876-1 1-353); test: indirect ELISA, antigen coated 1 µg/mL, antibody 1 µg/mL; no-antigen well 0.048
Method: (§1) Myeloma human IgA1 (Abcam), Myeloma human IgA2 (Abcam), Myeloma human IgD (Abcam), Myeloma human IgE (Abcam), Myeloma human IgM (Abcam), Myeloma human IgG1 (EMD Millipore), Myeloma human IgG2 (EMD Millipore), Myeloma human IgG3 (Sigma-Aldrich Co. LLC), and Myeloma human IgG4 (EMD Millipore) were adjusted to 1 μg/mL with PBS(−). The adjusted samples were added to a 96-well plate (Thermo Fisher Scientific) by 100 μL, respectively. The plate was shaken by a shaker under the condition of 700 rpm and 25.0° C. for 1 hour. The solutions were discarded, the plate was cleaned with 300 μL of PBST 3 times, 100 μL of a blocking buffer solution was added to each well, and then the plate was stored at 4° C. one night or more. Similarly, after cleaning with PBST, the MaI4-08 and MaI4-09-produced antibodies were adjusted to 1 μg/mL with an antibody dilute buffer solution and then added to each well by 100 μL, and the plate was shaken under the same condition as mentioned above. Similarly, after cleaning with PBST, a HRP labeled anti-mouse IgG antibody (Abcam) diluted 4000-fold with an antibody dilute buffer solution was added to each well by 100 μL, and the plate was shaken under the same condition as mentioned above. Similarly, after cleaning with PBST, 100 μL of SureBlue (KPL) was added. 5 or 3 minutes later, 100 μL of 0.5 mol/L sulfuric acid (Wako Pure Chemical Corporation) was added to each of MaI4-08 and MaI4-09. Absorbance at a wavelength of 450 nm was measured with a microplate reader (BIO-RAD Laboratories, Inc.). As a result, a strong signal was given to Myeloma human IgG4 as compared to the other samples (Tables 2 and 3, and FIGS. 2 and 3).

[2] = target: Myeloma human IgA2 (Abcam) (human, UniProt P01877-1 1-340); test: as above
Chain of Myeloma human IgA2 (Abcam) (P01877 other isoform, or with tags, fused parts or gaps): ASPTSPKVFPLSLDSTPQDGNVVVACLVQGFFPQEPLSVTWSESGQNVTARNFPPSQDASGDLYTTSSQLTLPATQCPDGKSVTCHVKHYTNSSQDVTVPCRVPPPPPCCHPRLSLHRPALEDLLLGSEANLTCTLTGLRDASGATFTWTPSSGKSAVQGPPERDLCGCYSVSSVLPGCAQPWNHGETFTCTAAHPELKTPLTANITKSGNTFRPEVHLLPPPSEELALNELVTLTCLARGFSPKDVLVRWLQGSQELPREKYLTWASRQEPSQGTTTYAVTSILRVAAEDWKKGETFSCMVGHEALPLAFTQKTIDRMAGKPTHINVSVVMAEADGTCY
Method: as §1

[3] = target: Myeloma human IgD (Abcam) (human, UniProt P01880-1 1-384); test: as above
Chain of Myeloma human IgD (Abcam) (P01880 other isoform, or with tags, fused parts or gaps): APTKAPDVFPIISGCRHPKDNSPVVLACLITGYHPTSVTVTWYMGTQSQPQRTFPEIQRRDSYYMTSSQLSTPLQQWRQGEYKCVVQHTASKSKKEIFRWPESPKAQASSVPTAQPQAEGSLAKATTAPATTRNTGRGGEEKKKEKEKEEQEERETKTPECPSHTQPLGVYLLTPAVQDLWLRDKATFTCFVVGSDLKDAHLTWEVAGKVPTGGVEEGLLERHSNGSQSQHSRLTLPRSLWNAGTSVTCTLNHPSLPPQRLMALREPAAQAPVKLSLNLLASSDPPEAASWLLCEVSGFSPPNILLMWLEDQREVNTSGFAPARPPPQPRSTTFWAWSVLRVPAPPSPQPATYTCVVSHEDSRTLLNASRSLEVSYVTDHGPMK
Method: as §1

[4] = target: Myeloma human IgE (Abcam) (human, UniProt P01854-1 1-428); test: as above
Chain of Myeloma human IgE (Abcam) (P01854 other isoform, or with tags, fused parts or gaps): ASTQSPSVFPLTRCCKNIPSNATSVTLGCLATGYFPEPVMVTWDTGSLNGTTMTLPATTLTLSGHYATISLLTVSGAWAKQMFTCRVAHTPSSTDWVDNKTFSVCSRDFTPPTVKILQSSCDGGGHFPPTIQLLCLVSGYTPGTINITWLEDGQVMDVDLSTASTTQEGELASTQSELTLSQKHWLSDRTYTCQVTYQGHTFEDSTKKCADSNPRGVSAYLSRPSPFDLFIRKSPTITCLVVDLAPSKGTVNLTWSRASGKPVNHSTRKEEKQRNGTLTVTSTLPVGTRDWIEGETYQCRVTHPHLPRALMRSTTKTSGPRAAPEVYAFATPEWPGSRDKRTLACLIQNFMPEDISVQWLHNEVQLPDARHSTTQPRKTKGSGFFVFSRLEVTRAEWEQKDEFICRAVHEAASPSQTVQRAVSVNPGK
Method: as §1

[5] = target: Myeloma human IgM (Abcam) (human, UniProt P01871-1 1-453); test: as above
Chain of Myeloma human IgM (Abcam) (P01871 other isoform, or with tags, fused parts or gaps): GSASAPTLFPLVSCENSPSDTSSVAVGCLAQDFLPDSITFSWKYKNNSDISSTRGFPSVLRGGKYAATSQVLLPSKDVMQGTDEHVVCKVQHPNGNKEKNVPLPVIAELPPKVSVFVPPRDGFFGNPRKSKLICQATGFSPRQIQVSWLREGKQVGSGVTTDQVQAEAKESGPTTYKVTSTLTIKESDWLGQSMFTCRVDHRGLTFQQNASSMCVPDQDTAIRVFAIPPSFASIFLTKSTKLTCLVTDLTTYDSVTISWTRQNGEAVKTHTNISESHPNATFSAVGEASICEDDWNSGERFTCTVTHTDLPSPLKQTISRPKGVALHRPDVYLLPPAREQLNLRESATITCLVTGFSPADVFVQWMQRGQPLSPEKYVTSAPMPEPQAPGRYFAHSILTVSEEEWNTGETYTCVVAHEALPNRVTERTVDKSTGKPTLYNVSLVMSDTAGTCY
Method: as §1

[6] = target: T1, Myeloma human IgG2 (EMD Millipore) (human); test: as above
T1 construct: Bought myeloma protein
T1 sequence (constant, as listed by the source limits assumed): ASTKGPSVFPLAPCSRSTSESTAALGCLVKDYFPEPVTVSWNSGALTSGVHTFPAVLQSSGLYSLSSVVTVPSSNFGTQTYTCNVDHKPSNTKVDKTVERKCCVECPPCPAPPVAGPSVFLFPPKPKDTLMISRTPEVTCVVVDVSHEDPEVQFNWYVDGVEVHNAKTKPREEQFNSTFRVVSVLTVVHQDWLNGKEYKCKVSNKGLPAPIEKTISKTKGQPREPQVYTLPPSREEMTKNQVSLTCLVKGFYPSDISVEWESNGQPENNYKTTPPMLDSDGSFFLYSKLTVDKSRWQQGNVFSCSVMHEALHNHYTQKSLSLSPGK
Method: as §1

[7] = target: T2, Myeloma human IgG3 (Sigma-Aldrich Co. LLC) (human); test: as above
T2 construct: Bought myeloma protein
T2 sequence (constant, as listed by the source limits assumed): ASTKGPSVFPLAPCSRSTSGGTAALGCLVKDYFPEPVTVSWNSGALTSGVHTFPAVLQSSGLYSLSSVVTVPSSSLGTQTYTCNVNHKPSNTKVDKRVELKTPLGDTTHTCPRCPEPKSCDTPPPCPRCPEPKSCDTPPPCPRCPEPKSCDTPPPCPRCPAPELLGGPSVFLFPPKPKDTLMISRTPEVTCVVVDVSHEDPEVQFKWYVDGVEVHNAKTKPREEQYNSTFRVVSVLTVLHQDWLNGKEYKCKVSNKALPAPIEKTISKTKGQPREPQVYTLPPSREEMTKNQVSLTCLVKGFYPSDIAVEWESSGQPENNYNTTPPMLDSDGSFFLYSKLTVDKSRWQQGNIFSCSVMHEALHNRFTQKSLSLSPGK
Method: as §1

[8] = target: T3, GST-tagged peptide H2 (positions 1 to 274 of the human IgG4 heavy chain constant region) (human, UniProt P01861 1-274 = IgG part); test: Western blot: E. coli lysate with the GST-tagged peptide, SDS-PAGE, PVDF membrane, POD-labelled antibody diluted 1000-fold, ECL
T3 construct: E. coli lysate on Western blot; not shown: GST tag (glutathione S-transferase) linked to the N terminal, expressed from vector pGEX-6P-1
T3 sequence (P01861 1-274): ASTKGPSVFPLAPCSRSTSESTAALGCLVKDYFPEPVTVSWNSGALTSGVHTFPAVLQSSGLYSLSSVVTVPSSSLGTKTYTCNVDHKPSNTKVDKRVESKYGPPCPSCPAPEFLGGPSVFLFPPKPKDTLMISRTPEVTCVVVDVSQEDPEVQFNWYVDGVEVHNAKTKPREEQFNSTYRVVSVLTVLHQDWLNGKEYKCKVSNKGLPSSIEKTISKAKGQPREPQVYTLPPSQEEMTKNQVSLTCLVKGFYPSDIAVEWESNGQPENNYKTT
Method: (§2) Based on the designed amino acid sequences, base sequences suitable for expressing protein in E. coli were designed according to the protocol of GenScript Corporation, thereby preparing vector pGEX-6P-1 (GE Healthcare Bio-Sciences Corp.) to which the respective base sequences are inserted. The prepared expression plasmid was introduced to E. coli BL 21 strain, thereby obtaining a transformant. The transformant was cultured by an ordinary method and a protein expression was induced by IPTG. After the cells were collected by centrifugation, the cells were dissolved with an ordinary lysis solution, and subjected to ultrasonication. 6 μL of an SDS sample buffer solution was added to 6 μL of the obtained lysate. The respective prepared samples were subjected to a heat treatment at 95° C. for 5 minutes. 10 μL of the E. coli disrupted sample was added to each well of 5 to 20% electrophoresis gel (Atto Corportation) to which an SDS electrophoresis buffer solution was added. Similarly, a molecular weight standard (Bio-Rad Laboratories, Inc.) was added to each well and electrophoresed. After completing the electrophoresis, the electrophoresis gel was transcribed to a PVDF membrane (Millipore Corporation) with a transfer buffer solution. The PVDF membrane was immersed in a membrane blocking buffer solution, and then shaking was carried out at room temperature for 30 minutes. Amino groups of MaI4-08, MaI4-09, and MaI4-05-produced antibodies were subjected to a POD labeling treatment with a POD labeling kit (Dojindo Molecular Technologies, Inc.). The obtained labeled antibodies each were diluted 1000-fold by PBST. After the PVDF membrane was cleaned with PBST, the antibody solutions prepared each were added to the PVDF membrane, and then the reaction was performed at room temperature for 1 hour. After the PVDF membrane was cleaned by PBST, a signal was detected with ECL Prime Western Blotting Detection Reagents (GE Healthcare) with Image Quant Las4000.

[9] = target: T4, GST-tagged peptide H3 (positions 1 to 220 of the human IgG4 heavy chain constant region) (human, UniProt P01861 1-220 = IgG part); test: as above
T4 construct: E. coli lysate on Western blot; not shown: GST tag (glutathione S-transferase) linked to the N terminal, expressed from vector pGEX-6P-1
T4 sequence (P01861 1-220): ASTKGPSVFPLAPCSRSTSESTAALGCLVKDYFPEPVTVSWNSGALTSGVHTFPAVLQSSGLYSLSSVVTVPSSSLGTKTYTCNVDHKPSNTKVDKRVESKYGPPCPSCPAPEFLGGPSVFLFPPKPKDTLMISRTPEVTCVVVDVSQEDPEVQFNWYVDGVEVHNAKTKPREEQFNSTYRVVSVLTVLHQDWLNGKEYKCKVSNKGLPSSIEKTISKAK
Method: as §2

[10] = target: T5, GST-tagged peptide H4 (positions 1 to 165 of the human IgG4 heavy chain constant region) (human, UniProt P01861 1-165 = IgG part); test: as above
T5 construct: E. coli lysate on Western blot; not shown: GST tag (glutathione S-transferase) linked to the N terminal, expressed from vector pGEX-6P-1
T5 sequence (P01861 1-165): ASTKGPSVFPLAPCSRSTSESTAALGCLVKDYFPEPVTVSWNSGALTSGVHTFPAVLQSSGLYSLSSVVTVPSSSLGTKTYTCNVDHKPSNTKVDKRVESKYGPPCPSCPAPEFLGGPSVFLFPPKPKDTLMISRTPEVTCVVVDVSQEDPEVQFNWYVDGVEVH
Method: as §2

[11] = target: T6, GST-tagged peptide H5 (positions 1 to 110 of the human IgG4 heavy chain constant region) (human, UniProt P01861 1-110 = IgG part); test: as above
T6 construct: E. coli lysate on Western blot; not shown: GST tag (glutathione S-transferase) linked to the N terminal, expressed from vector pGEX-6P-1
T6 sequence (P01861 1-110): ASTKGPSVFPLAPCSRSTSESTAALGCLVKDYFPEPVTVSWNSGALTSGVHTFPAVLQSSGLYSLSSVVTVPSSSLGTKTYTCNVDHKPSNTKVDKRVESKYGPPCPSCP
Method: as §2

[12] = target: T7, GST-tagged peptide H6 (positions 1 to 55 of the human IgG4 heavy chain constant region) (human, UniProt P01859 1-55 = IgG part); test: as above
T7 construct: E. coli lysate on Western blot; not shown: GST tag (glutathione S-transferase) linked to the N terminal, expressed from vector pGEX-6P-1
T7 sequence (P01859 1-55): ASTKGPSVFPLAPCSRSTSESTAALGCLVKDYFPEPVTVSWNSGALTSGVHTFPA
Method: as §2

[13] = target: T8, GST-tagged peptide H11 (positions 275 to 327 of the human IgG4 heavy chain constant region) (human, UniProt P01861 275-325 = IgG part); test: as above
T8 construct: E. coli lysate on Western blot; not shown: GST tag (glutathione S-transferase) linked to the N terminal, expressed from vector pGEX-6P-1
T8 sequence (P01861 other isoform, or with tags, fused parts or gaps): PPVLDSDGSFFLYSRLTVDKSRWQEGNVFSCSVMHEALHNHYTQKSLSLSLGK
Method: as §2

[14] = target: T9, GST-tagged peptide H12 (positions 99 to 220 of the human IgG4 heavy chain constant region) (human, UniProt P01861 99-220 = IgG part); test: as above
T9 construct: E. coli lysate on Western blot; not shown: GST tag (glutathione S-transferase) linked to the N terminal, expressed from vector pGEX-6P-1
T9 sequence (P01861 99-220): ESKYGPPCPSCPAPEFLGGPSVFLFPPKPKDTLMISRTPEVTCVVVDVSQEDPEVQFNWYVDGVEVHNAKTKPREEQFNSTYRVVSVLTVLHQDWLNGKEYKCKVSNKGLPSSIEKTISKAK
Method: as §2

Chain of Myeloma human IgA1 (Abcam) (P01876 other isoform, or with tags, fused parts or gaps): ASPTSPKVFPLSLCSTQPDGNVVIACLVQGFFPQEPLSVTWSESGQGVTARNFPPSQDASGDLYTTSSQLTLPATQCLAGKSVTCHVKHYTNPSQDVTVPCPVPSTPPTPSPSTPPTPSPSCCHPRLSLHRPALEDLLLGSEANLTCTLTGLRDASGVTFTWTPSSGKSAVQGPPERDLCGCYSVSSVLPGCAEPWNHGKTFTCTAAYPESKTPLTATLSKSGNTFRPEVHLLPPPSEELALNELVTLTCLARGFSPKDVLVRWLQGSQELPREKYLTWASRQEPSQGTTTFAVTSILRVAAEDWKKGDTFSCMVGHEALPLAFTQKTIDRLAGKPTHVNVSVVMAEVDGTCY

B1: MaI4-09-produced antibody (antibody, IgG1, V domains shown)
VH: EVQLQQSGPELVKPGASVKMSCKASGYTFTSSVMHWMKQKPGQGLEWIGYINPYNDGTRYNEKFQGKATLTSDKSSNTAYMELSSLTSEDSAVYYCTRSFYYGNSHVLFAYWGQGTLVTVSA
VL: DIKMTQSPSSIYPSLGERVTITCKASQDINSYLSWFQQKPGKSPKTLIYRANRLVDGVPSRFSGSGSGQDYSLTISSLEYEDMGIYHCLQYDELPYTFGGGTTLEIK
notes: Purified on protein G from hybridoma culture supernatant; POD-labelled for the Western blots
- absorbance at 450 nm [1]: 0.058
- absorbance at 450 nm [2]: 0.05
- absorbance at 450 nm [3]: 0.051
- absorbance at 450 nm [4]: 0.05
- absorbance at 450 nm [5]: 0.055
- absorbance at 450 nm [6]: 0.064
- absorbance at 450 nm [7]: 0.052
- binding result [8]: no binding
- binding result [9]: no binding
- binding result [10]: no binding
- binding result [11]: no binding
- binding result [12]: no binding
- binding result [13]: no binding
- binding result [14]: no binding
